Laboratory results as given in patent publication US20100325744A1 (Genmab, published 2010).

Tests used:
human C1q (Quidel) = target: T1, human C1q (Quidel) (human, UniProt P02745 23-245; P02746 28-253; P02747 29-245); assay: ELISA, antibody coated, C1q detected with rabbit anti-human C1q
T1 construct: Bought (Quidel, lot 900848); also called first component of the classical complement cascade

[1] = target: the molecule itself; assay: self-association; gel filtration on Superdex 200 in PBS, fractions read by Bet v 1 binding test

T1 sequence (P02745 23-245 limits assumed, chain 1 of 3): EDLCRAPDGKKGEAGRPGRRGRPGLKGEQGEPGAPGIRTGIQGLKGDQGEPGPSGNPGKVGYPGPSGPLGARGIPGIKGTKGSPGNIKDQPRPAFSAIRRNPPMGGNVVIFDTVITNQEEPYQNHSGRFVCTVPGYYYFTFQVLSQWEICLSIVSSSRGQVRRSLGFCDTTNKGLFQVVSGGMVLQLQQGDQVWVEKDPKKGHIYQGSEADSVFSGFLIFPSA
T1 sequence (P02746 28-253 limits assumed, chain 2 of 3): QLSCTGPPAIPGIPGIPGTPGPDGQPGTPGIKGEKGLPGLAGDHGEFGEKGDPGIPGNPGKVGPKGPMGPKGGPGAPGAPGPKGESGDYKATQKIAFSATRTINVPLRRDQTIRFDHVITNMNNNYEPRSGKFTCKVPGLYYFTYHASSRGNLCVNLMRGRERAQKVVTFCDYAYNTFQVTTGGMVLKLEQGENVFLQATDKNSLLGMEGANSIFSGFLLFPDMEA
T1 sequence (P02747 29-245 limits assumed, chain 3 of 3): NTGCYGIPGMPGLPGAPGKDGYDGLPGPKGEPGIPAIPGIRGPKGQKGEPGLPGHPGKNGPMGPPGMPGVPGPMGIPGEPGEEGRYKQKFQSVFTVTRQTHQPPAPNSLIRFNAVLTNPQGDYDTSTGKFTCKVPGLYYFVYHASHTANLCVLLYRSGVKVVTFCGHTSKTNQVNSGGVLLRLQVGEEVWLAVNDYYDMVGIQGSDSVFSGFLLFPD

B1: 7D8-IgG4 (antibody)
heavy: not shown
light: EIVLTQSPATLSLSPGERATLSCRASQSVSSYLAWYQQKPGQAPRLLIYDASNRATGIPARFSGSGSGTDFTLTISSLEPEDFAVYYCQQRSNWPITFGQGTRLEIK
notes: Produced from pTomG47D8 and pConK7D8; also called IgG4 anti-CD20; not shown: human kappa light chain constant region, allotype km3 (vector pConKappa0.4, Lonza)
B1: no binding (human C1q (Quidel)).

B2: 7D8-HG (antibody)
heavy: EVQLVESGGGLVQPDRSLRLSCAASGFTFHDYAMHWVRQAPGKGLEWVSTISWNSGTIGYADSVKGRFTISRDNAKNSLYLQMNSLRAEDTALYYCAKDIQYGNYYYGMDVWGQGTTVTVSSASTKGPSVFPLAPCSRSTSESTAALGCLVKDYFPEPVTVSWNSGALTSGVHTFPAVLQSSGLYSLSSVVTVPSSSLGTKTYTCNVDHKPSNTKVDKRVAPEFLGGPSVFLFPPKPKDTLMISRTPEVTCVVVDVSQEDPEVQFNWYVDGVEVHNAKTKPREEQFNSTYRVVSVLTVLHQDWLNGKEYKCKVSNKGLPSSIEKTISKAKGQPREPQVYTLPPSQEEMTKNQVSLTCLVKGFYPSDIAVEWESNGQPENNYKTTPPVLDSDGSFFLYSRLTVDKSRWQEGNVFSCSVMHEALHNHYTQKSLSLSLGK
light: EIVLTQSPATLSLSPGERATLSCRASQSVSSYLAWYQQKPGQAPRLLIYDASNRATGIPARFSGSGSGTDFTLTISSLEPEDFAVYYCQQRSNWPITFGQGTRLEIK
notes: Half-molecule of one heavy and one light chain; in PBS without other IgG it is reported to form a non-covalent dimer; also called hingeless IgG4 anti-CD20; IgG4 HG; not shown: human kappa light chain constant region, allotype km3 (vector pConKappa0.4, Lonza)
B2: no binding (human C1q (Quidel)).

B3: Betv1-HG (antibody, V domains shown)
VH: EVQLQQSGAELVKPGASVKLSCTASGFNIKDTYIHWVKQRPEQGLEWVGRIDPATGNTRYDPKFQGKATITADTSSNTAYLQLSSLTSEDTAVYYCASFRPGYALDYWGQGTSVTVSS
VL: DIVMTQSHKFMSTSVGDRVSFTCKASQDVFTAVAWYQQKPGQSPKLLIYWASTRRTGVPDRFTGSGSGTDYTLTISSVQAEDLALYYCQQHFSTPPTFGGGTKLEIK
notes: Half-molecule of one heavy and one light chain; also called hingeless IgG4 anti-Bet v 1; hingeless rIgG4 Betv1-HG; not shown: human kappa light chain constant region, allotype km3 (vector pConKappa0.4, Lonza)
B3: no binding [1].
